{
  "source": "paper PMC2233886",
  "key": {"eCFP-CNGB1": {"biological_target": "eCFP-CNGB1 (UniProt Q28181)", "sequence (Q28181 whole entry)": "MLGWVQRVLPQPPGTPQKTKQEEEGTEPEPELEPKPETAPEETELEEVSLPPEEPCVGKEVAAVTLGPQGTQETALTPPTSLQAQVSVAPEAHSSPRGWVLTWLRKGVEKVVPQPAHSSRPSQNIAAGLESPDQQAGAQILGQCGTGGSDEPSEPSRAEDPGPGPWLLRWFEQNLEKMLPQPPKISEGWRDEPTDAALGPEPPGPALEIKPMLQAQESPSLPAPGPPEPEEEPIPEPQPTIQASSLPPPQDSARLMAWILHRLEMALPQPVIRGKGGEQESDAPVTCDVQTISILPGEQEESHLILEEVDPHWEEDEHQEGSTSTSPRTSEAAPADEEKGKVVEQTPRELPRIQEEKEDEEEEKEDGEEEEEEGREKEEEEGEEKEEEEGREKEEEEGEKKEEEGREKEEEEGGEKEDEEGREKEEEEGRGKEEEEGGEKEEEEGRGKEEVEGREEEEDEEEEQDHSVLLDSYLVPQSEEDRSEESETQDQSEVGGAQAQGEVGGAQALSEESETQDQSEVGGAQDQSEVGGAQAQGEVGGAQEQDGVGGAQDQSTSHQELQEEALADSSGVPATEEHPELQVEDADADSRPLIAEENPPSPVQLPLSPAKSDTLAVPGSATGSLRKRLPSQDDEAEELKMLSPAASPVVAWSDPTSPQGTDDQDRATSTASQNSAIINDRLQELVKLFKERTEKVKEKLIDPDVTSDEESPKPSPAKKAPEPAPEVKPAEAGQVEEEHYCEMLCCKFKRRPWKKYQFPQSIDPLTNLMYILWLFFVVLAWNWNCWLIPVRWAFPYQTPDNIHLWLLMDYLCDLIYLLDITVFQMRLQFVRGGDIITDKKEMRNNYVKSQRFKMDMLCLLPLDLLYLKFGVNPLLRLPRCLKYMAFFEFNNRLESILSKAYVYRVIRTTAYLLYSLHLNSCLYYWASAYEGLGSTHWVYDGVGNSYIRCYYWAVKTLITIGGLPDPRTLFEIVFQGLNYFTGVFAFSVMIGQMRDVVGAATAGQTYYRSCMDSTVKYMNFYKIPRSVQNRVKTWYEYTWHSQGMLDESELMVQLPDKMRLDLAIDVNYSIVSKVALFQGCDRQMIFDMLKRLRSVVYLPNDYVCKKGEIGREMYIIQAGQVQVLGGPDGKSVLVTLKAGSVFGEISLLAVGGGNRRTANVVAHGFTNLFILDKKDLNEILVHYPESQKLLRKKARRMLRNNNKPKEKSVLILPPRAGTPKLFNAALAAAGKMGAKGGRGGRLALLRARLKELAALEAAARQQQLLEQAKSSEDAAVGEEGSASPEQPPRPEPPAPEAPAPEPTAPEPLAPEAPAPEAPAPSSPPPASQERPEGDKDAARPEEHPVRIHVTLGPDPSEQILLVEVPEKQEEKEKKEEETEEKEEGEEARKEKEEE", "experiment": "FRET or BRET"}, "[1]": {"biological_target": "heteromeric CNGA1/CNGB1 channels (UniProt Q00194)", "sequence (Q00194 whole entry K2E, chain 1 of 2)": "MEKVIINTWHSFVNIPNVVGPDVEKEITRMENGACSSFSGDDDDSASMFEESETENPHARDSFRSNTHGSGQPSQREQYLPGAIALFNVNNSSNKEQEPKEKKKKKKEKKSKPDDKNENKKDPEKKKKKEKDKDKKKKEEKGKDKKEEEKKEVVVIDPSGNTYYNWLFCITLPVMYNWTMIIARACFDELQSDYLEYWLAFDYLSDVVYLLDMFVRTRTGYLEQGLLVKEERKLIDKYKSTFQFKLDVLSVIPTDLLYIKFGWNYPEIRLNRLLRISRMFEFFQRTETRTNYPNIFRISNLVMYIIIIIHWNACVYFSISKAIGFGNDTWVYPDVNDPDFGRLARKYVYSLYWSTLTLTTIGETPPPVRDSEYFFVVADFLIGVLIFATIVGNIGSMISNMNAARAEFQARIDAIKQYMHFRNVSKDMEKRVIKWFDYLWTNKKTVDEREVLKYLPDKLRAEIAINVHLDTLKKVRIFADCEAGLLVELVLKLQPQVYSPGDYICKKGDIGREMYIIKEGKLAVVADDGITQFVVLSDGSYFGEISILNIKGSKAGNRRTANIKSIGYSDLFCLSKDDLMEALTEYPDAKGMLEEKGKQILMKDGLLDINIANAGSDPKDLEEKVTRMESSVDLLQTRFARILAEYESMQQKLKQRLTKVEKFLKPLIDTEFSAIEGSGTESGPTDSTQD", "sequence (Q28181 whole entry, chain 2 of 2, further chain)": "as the sequence (Q28181 whole entry) above", "experiment": "patch-clamp fluorometry"}, "CNGA1-eYFP": {"biological_target": "CNGA1-eYFP (UniProt Q00194)", "sequence (Q00194 whole entry K2E)": "as the sequence (Q00194 whole entry K2E, chain 1 of 2) above", "experiment": "FRET or BRET"}},
  "data": [
    {"substance": "CaM conjugated to the fluorescent dye Alexa-488 (from UniProt P62157 1-149) (natural protein)", "values": [
      {"measurement": "time constant of eCFP quenching (250 nM CaM-488)", "setting": "eCFP-CNGB1", "result": 24.6, "unit": "s"},
      {"measurement": "time constant of fluorescence decrease (washout in Ca2+-free solution)", "setting": "[1]", "result": 51, "unit": "s"},
      {"measurement": "time constant of fluorescence increase (250 nM CaM-488)", "setting": "[1]", "result": 18.5, "unit": "s"}
    ]},
    {"substance": "eCFPΔCaM-CNGB1 (from UniProt Q28181 702-1394) (domain or fragment)", "values": [
      {"measurement": "reduction in FRET against eCFP-CNGB1", "setting": "CNGA1-eYFP", "result": 29, "unit": "%"}
    ]},
    {"substance": "eCFP-CNGB1 (from UniProt Q28181 677-1394) (domain or fragment)", "values": [
      {"measurement": "F530/F480 ratio (initial, before Ca2+/CaM)", "setting": "CNGA1-eYFP", "result": 1.8}
    ]}
  ]
}
